The subject of test [1] is BaF3 cells overexpressing FGFR2-PHGDH. In words: combination of BGJ398 and anti-FGFR2 bivalent antibody, isobolograms and Loewe scores (FIGS. 14, 15). It counts as cell-based. The following applies: presence of FGF10, treated for 5 days. From the text:
FIGS. 14B-14D provide isobolograms showing synergy between FGFR inhibitor and the anti-[…] bivalent antibody on the different days and supporting the results shown in FIG. 14A. FIG. 14B corresponds to 3 days after treatment with the BGJ398 inhibitor; FIG. 14C corresponds to 4 days after treatment with the BGJ398 inhibitor; and FIG. 14D corresponds to 5 days after treatment with the BGJ398 inhibitor. FIG. 14E provide Loewe scores showing synergy between the FGFR inhibitor and the anti-FGF2 bivalent antibody on the different days and supporting the results shown in FIG. 14A.
FIG. 15A presents charts showing synergy between the FGFR2 small molecule inhibitor BGJ398 and an anti-FGFR2 bivalent antibody (Antibody D) in the presence of FGF ligand (+FGF) in a cell-based assay using BaF3 cells overexpressing an FGFR2 fusion molecule (FGFR2-PHGDH) after 3, 4 and 5 days of treatment with the inhibitor and the antibody. […] FIGS. 15B-15D provide isobolograms showing synergy between the FGFR inhibitor and the anti-FGF2 bivalent antibody on the different days and supporting the results shown in FIG. 15A. FIG. 15B corresponds to 3 days after treatment with the BGJ398 inhibitor; FIG. 15C corresponds to 4 days after treatment with the BGJ398 inhibitor; and FIG. 15D corresponds to 5 days after treatment with the BGJ398 inhibitor. […]

The subject of test [2] is FGFR2-PHDGH fusion expressing BaF3 cells. In words: ligand stimulated (FGF10) growth of FGFR2-PHGDH fusion expressing BaF3 cells (FIG. 10). The following applies: FGF10 present. It counts as cell-based. As to the method: FIG. 10 is a graph showing that antibodies C, D, E and F have activity against ligand stimulated growth of FGFR2-PHDGH fusion expressing BaF3 cells.
The growth of BaF3 cells expressing an FGFR2-PHDGH fusion was assayed in the presence of FGF ligand, FGF10. Antibodies C, D, E and F inhibited ligand stimulated growth of FGFR2-PHDGH fusion expressing BaF3 cells (FIG. 10). Based on the results reported herein above, antagonistic biparatopic antibodies are made using the FGFR2 antibody combinations shown in FIG. 11A. These combinations result in increased growth inhibition effects in oncogenic or cancer cells (e.g., transformed BaF3 cells) that overexpressed […]. Thus, antibodies that bind to epitopes have increased inhibitory and killing effects against cancer cells. Designs for antagonistic biparatopic antibodies are shown at FIGS. 11B and 11C. Advantageously, including complementary mutations in VH-VL and CH1-CL on one-half of the biparatopic antibody results in preferential heterodimeric pairing between two different chains rather than chains from the other half of the same antibody. Alternatively, a linker method is used to create scFab, scFv, or DuoBodies. In this method two antibody chains are each generated in different cells and mixed in vitro. Such methods are known in the art and described, for example, by K. Ding et al, March 2017, Appl. Microbiol. […]

Test [3] has as its system BaF3 cells expressing wild-type FGFR2IIIb. In words: ligand-induced (FGF10) growth of BaF3 cells expressing FGFR2IIIb (FIG. 8). It counts as cell-based. As to the method:
FIG. 8 is a schematic (described at FIG. 7A) and a graph showing the growth of BaF3 cells expressing FGFR2IIIb when treated with FGF10. Anti-FGFR2 antibodies blocked ligand-dependent stimulation of BaF3 cells expressing wild-type FGFR2b. FGFR2b is an isoform of FGFR2 that is predominantly expressed in cholangiocarcinoma.
Antibodies A-F were tested to determine whether they could inhibit the ligand-induced growth of BaF3 cells expressing FGFR2IIIb. Antibodies C, D, and E, which bind FGFR2 Ig-2 and Ig-3, were effective in blocking ligand-induced growth of BaF3 cells expressing wild-type FGFR2IIIb (FIG. 8). The effects of antibodies A-F were then tested on BaF3 cells expressing FGFR2-PHDGH fusions. […] Antibody F inhibited the FGFR2-PHDGH activating fusion in BaF3 cells (FIG. 9).

For another test, the target named is FGFR2b alpha IIIb (Homo sapiens, UniProt P21802). In words: Surface Plasmon Resonance (SPR) binding. The conditions noted are these: FGFR2b alpha IIIb antigen. From the text: FIGS. 17A-17C provide a schematic and tabular data related to assessments made to compare the avidity of biparatopic antibodies to that of their parental (bivalent monospecific) antibodies.
Surface Plasmon Resonance (SPR) as known in the art was used to determine the binding affinities of biparatopic antibodies. The SPR-based binding method involves immobilization of a ligand (antibody) on the surface of a sensor chip. The binding partner of interest or an analyte (FGFR2 ECD) flow through the flow channel. Different concentrations of an analyte flow over the ligand, and the interactions of ligand-analyte can be characterized. The SPR signal originates from changes in the refractive index of the […] at the surface of the sensor chip. The increase in mass associated with a binding event causes a proportional increase in the refractive index, which is observed as a change in response-resonance signal. In brief, for the experiments using the antibodies described herein, the SPR assay was carried out by immobilizing antibodies (used as […]) at a concentration ranging from 1-1000 nM and flow-through FGFR2b alpha IIIb antigen (used as […]). The antibody kinetic data for the interaction with FGFR2b alpha IIb antigen were fitted to the 2-state and 1-1 binding models using Biocore software. The mean and standard deviation KD values are derived from at least three independent runs.
Using SPR, the kinetics of 6 monospecific and 13 biparatopic antibodies for binding to a single antigen, FGFR2b alpha IIb, was measured so as to compare avidity of the biparatopic antibodies to their parental antibodies. Without wishing to be bound by theory, it was expected that the biparatopic antibodies would bind to the FGFR2 antigen more tightly than their parental antibodies and that the tighter binding biparatopic antibodies among the antibodies that were assessed would be more efficient in blocking FGFR2 dimerization (FIG. 17A), thereby leading to inhibition or blocking of constitutive FGFR2 signaling and/or oncogenic transformation. […]

“Also recorded” adds a separate entry of the source.

Sequence of FGFR2b alpha IIIb (P21802 22-378 isoform P21802-3): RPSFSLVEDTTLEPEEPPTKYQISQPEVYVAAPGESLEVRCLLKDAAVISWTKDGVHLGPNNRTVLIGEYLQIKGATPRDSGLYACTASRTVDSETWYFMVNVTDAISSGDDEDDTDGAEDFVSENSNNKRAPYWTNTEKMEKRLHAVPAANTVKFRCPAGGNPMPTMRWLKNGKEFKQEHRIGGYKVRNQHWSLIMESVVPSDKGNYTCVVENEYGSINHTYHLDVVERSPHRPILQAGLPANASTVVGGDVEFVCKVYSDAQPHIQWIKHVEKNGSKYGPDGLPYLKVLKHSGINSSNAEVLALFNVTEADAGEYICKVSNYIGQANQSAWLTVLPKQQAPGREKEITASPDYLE

B1: 2B 1.3.12 (antibody, V domains shown)
VH: EVQLVESGGGLVQPGGSLRLSCAASGFPFTSTGISWVRQAPGKGLEWVGRTHLGDGSTNYADSVKGRFTISADTSKNTAYLQMNSLRAEDTAVYYCARTYGIYDTYDMYTEYVMDYWGQGTLVTVSS
VL: DIQMTQSPSSLSASVGDRVTITCRASQDVDTSLAWYKQKPGKAPKLLIYSASFLYSGVPSRFSGSGSGTDFTLTISSLQPEDFATYYCQQSTGHPQTFGQGTKVEIK
notes: the duobody scheme implies IgG1 with K409R or F405L; also called Antibody D; GE
Usually Kd stands for the constant that tells how readily two partners part at equilibrium. A higher Kd goes with weaker binding. B1: in test [1], the “synergy with BGJ398 in inhibiting FGFR2-PHGDH driven BaF3 cell growth” value is reported as “synergizes”. The “inhibition of ligand stimulated growth of FGFR2-PHGDH fusion expressing BaF3 cells” value in test [2] is listed as “have activity; also recorded: inhibited”. Further, the “blocking ligand-induced growth of BaF3 cells expressing wild-type FGFR2IIIb” value in test [3] is on record as “effective”. Moreover, the affinity in the test with FGFR2b alpha IIIb, expressed as Kd, was 0.99 nM.
